Measured values taken from publication PMC11826918, “Generation of antagonistic biparatopic anti-CD30 antibody from an agonistic antibody by precise epitope determination and utilization of structural characteristics of CD30 molecule” (Antibody Therapeutics, 2025).

B1: T426 cAb (antibody, V domains shown)
VH: EVQLQQSGAELVKPGASVKLSCTASGFNVKDTYVHWVKQRPEQGLEWIGRIDPANSDTKYDSKFQGKATTSADTSSNTAYLQLNSLTSEDTAVYYCASGTDDYYWYFDVWGAGTTVTVSS
VL: DIVLTQSPASLAVSLGQRATISCRASKSVSTPAHTYMHWYQQKPGQPPKLLIYLASNLESGVPARFSGSGSGTDFTLNIHPVEVEDAATYYCQHSRVLPYTFGGGTKLEIK
B2: T427 cAb (antibody, V domains shown)
VH: QVQLQQPGTELVRPGASVKLSCKASGFSFTSYWMNWVKQRPGQGLEWIGMIHPSDSETRLNQKFKDRATLTVDKSSSTAYMQLSSPTSEDSAVYYCASEMDYYFAMDYWGQGTSVTVSS
VL: DIVLTQSPTSLAVSLGQRATISCRASESVDSYGNSFMHWFQQKPGQPPKLLIYRASNLESGIPARFSGSGSWTDFTLTINPVEADDVATYYCQQSNEDPRTFGGGTKLEIK
B3: T25 cAb (antibody, V domains shown)
VH: QVTLKESGPGILQPSQTLSLTCSFSGFSLNTSGVGVGWIRQPSGKGLEWLAHIWWDDDERYNPVLKSRLTISKDTSSNQVFLKIANVDTADSATYYCVRSMVAWFPYWGRGTLVTVSA
VL: DIVMSQSPSSLAVSVGEKFTVNCKSSQSLLYSSNQKNFLAWYQQKPGQSPKLLIYWASTRESGVPDRFIGSGSGTDFTLTISSVKAEDLAVYYCQQHYRYPWTFGGGTKLEIK
B4: AC10 cAb (antibody, V domains shown)
VH: QIQLQQSGPEVVKPGASVKISCKASGYTFTDYYITWVKQKPGQGLEWIGWIYPGSGNTKYNEKFKGKATLTVDTSSSTAFMQLSSLTSEDTAVYFCANYGNYWFAYWGQGTQVTVSA
VL: DIVLTQSPASLAVSLGQRATISCKASQSVDFDGDSYMNWYQQKPGQPPKVLIYAASNLESGIPARFSGSGSGTDFTLNIHPVEEEDAATYYCQQSNEDPWTFGGGTKLEIK
B5: T107 cAb (antibody, V domains shown)
VH: QVQLQQSGPELVRPGVSVKISCKGSGYSFPDYPLHWVKQSHAKSLEWIGIILTYSGNTNYNQNFKGKATMTVDTSSNTAYLELARLTSEDSAIYYCATFYYGYDGAFDYWGQGTTLTVSS
VL: DIVMTQSPSSLTVTAGEKVTMSCKSSQSLLNSGNQKNYLTWYQQKPGQPPKLLIHWASTRESGVPDRFTGSGSGTDFILTITSVQAEDLAVYYCQNDYTYPLTFGGGTKLELK
B6: T104 cAb (antibody, V domains shown)
VH: QIQLVQSGPELKKPGETVKISCKASGYTFTDYSMHWVKQAPGKGLKWMGWINTETGEPTYADDFKGRFAFSLETSASTAYLQINNLKNEDTATYFCTEGYVFDFWGQGTTLTVSS
VL: DILLTQSPAILSVSPGERVSFSCRASRSIGTSIHWYQQRTNGSPRLLINYASESISGIPSRFSGSGSGTDFTLSINSVESEDIADYYCQQSNSWPLTFGAGTKLELK
B7: T105 cAb (antibody, V domains shown)
VH: QVTLKESGPGILQPSQTLSLTCSFSGFSLSTSGMGVSWIRQPSGKDLEWLAHIYWDDDKRYNPSLKSRLTISKDTSSNQVFLKITSVDTADTATYYCARRADGLYFYLDVWGAGTTVTVSS
VL: DIVMTQSQKFMSTSVGDRVSVTCKASQNVNTNVAWYQQKPGQSPEALIYSASYRYSGVPDRFTGSGSGTDFTLTISNVQSEDLAEYFCQQYNSYPLTFGSGTKLEIK
B8: T6 cAb (antibody, V domains shown)
VH: QVQLKESGPGLVTPSQSLSITCTVSGFSLSKYSIHWVRQPPGRGLEWLGMIWGVENTDYNSALKSRLSISKDNSKSQVFLKMNSLQSDDTAMYYCARKDLGLYGMNYWGQGISVTVSA
VL: DIVMTQSQKFMSTSVGDRVSVTCKASQNVGTNVAWYQQKPGQSPKALFYSASYRYSGVPDRFIGSGSGTVFTLTISNVQSEDLAEYFCQQYNTYPLTFGSGTKLEIE
B9: T405 cAb (antibody, V domains shown)
VH: QVQLQQIGAELVRPGASVKLSCKASGYTFNNYWINWVKQRPGQGLEWIGNIYPSDSRSNYNQKFKDKATLTVDKPSSTAYMQLSSPTSEDSAVYYCTLGSYWGQGTLVTVSA
VL: not shown

Key:
CD30 fused to rabbit Fc = target: T1, CD30 fused to rabbit Fc (Homo sapiens, UniProt P28908-1); test: ELISA; mutual competition: indicator cAb (0.75 μg/mL) captured on goat anti-human IgG Fc; CD30-rFc (50 ng/mL) pre-incubated overnight at 4 °C with competitor cAb (2.8 μg/mL); bound CD30-rFc probed with anti-rabbit IgG; conditions: one partner purified
T1 construct: signal peptide in the construct; human CD30 whole extracellular domains, NP_001234.3 amino acids 1-383; also called CD30-rFc; source: HEK293T, transfected, harvested from the culture supernatant; not shown: hinge and Fc (rabbit IgG1), C-terminal, kept
T1 sequence (P28908 19-383): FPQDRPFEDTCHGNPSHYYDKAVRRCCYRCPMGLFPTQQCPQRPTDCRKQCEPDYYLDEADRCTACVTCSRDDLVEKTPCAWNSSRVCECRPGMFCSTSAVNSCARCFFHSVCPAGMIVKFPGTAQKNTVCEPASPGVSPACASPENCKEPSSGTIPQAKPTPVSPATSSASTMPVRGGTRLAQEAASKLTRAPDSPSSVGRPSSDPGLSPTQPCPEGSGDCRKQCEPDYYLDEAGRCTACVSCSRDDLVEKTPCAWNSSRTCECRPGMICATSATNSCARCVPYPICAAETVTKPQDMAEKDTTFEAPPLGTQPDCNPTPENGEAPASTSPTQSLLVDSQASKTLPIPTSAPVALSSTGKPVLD

[1] = target: T2, maltose-binding protein-fused CD30 (Homo sapiens, UniProt P28908-1); test: SPR; Biacore T200; cAb or BpAb captured on anti-human Fc (CM5), CD30-MBP flowed at 0, 2 and 20 nM (0, 20 and 200 nM for T426), contact 90 s, dissociation 300 s; 'at a rough level'; conditions: both partners purified
T2 construct: signal peptide in the construct; human CD30 extracellular domains, residues 1-336; also called CD30-MBP; source: Expi293, purified (Ni-NTA, Superdex200); not shown: MBP, C-terminal, kept
T2 sequence (P28908 19-336): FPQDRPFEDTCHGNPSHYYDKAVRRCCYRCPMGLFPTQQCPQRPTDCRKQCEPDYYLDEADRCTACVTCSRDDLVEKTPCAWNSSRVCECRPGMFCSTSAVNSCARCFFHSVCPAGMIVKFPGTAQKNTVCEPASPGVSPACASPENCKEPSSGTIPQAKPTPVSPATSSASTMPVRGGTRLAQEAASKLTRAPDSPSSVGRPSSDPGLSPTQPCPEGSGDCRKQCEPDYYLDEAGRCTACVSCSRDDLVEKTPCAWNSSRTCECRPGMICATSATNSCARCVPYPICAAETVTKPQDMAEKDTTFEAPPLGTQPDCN

Binder	binding result (CD30 fused to rabbit Fc)	binding result [1]
B1	binds	–
B2	binds	binds
B3	–	binds
B4	binds	binds
B5	binds	binds
B6	–	binds
B7	binds	binds
B8	–	binds
B9	–	binds
